Experimental data reported in US20220324932A1 (CSPC MEGALITH BIOPHARMACEUTICAL, published 2022).

T1: IL-2Rα (CD25) on the cell surface of mouse T cells (CTLL-2 cells; Treg cells of C57BL/6 mice) (mouse, UniProt P01590 22-268)
T1 sequence (looked up): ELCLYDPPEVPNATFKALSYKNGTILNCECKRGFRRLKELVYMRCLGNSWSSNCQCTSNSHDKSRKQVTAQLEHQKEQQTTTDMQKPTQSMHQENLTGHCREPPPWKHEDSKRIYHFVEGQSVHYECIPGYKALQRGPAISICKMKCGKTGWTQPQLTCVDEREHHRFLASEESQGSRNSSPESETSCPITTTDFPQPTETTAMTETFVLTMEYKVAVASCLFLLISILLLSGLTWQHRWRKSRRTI

B1: IL-2A2 (modified IL-2 protein with exogenous patch sequence IFKQTY replacing a portion of IL-2 Aldesleukin) (ligand)
chain: PTSSSTKKTQLQLEHLLLDLQMILNGINNYKNPKLTRMLIFKQTYPKKATELKHLQCLEEELKPLEEVLNLAQSKNFHLRPRDLISNINVIVLELKGSETTFMCEYADETATIVEFLNRWITFSQSIISTLT
B2: PEG-20K-IL-2A2 (IL-2A2 conjugated with 20 kDa methoxy-PEG-amine) (ligand)
chain: B1 chain
modifications: 20 kDa methoxy-PEG-amine conjugated by mTGase to the engineered Q residue of the IFKQTY patch

Molecular target: T1, IL-2Rα (CD25) on the cell surface of …
Experiment: cell-based or functional assay

| fold decrease in bioactivity in inducing CTLL-2 cell growth, compared to parent IL-2 Aldesleukin | percentage of Treg cells in blood of C57BL/6 mice after treatment | Binder |
| --- | --- | --- |
| ~49 fold | 0.32% | B1 |
| – | 0.25% | B2 |
